US20120219562A1 (AbbVie / Abbott, published 2012)

T1: human interleukin 12 (p70 heterodimer of p35 and p40) (human, UniProt P29459 23-219; P29460 23-328)
T1 construct: Recombinant human IL-12; also called hIL-12; IL-12
T1 sequence (looked up) 1: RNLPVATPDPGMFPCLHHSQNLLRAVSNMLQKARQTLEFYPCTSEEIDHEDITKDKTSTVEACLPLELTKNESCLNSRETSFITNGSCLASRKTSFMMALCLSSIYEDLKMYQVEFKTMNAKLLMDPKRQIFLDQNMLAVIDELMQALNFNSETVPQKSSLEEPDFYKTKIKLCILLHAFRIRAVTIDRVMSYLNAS
T1 sequence (looked up) 2: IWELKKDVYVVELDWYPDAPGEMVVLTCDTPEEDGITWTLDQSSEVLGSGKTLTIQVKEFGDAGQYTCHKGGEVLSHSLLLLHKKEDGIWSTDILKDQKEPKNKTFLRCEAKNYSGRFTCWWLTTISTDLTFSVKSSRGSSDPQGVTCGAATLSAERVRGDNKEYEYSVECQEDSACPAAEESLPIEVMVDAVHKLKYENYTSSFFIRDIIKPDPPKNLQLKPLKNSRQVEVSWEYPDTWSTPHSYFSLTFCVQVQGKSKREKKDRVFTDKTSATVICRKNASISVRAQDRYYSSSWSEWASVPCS


Target: T1, human interleukin 12 (p70 heterodimer …)
Assay: SPR (BIAcore), off-rate

| koff [s⁻¹] | Binder |
| --- | --- |
| 0.00025 | SEQ ID NO: 478 (Y61, P at L30) (antibody, V domains shown) VH: QVQLVQSGGGVVQPGRSLRLSCAASGFTFSSYGMHWVRQAPGKGLEWVAFIRYDGSNKYYADSVKGRFTISRDNSKNTLYLQMKSLRAEDTAVYYCKTHGSHDNWGQGTMVTVSS VL: SYVLTQPPSVSGTPGQRVTISCSGGRSNIGPNTVKWYQQLPGTAPKLLIYGNDQRPSGVPDRFSGSKSGTSASLAITGVQAEDEADYYCQSYDRGTHPALLFGTGTKVTVLG |
| 0.000366 | SEQ ID NO: 488 (Y61, G at L31) (antibody, V domains shown) VH: QVQLVQSGGGVVQPGRSLRLSCAASGFTFSSYGMHWVRQAPGKGLEWVAFIRYDGSNKYYADSVKGRFTISRDNSKNTLYLQMKSLRAEDTAVYYCKTHGSHDNWGQGTMVTVSS VL: SYVLTQPPSVSGTPGQRVTISCSGGRSNIGSGTVKWYQQLPGTAPKLLIYGNDQRPSGVPDRFSGSKSGTSASLAITGVQAEDEADYYCQSYDRGTHPALLFGTGTKVTVLG |
| 0.000292 | SEQ ID NO: 486 (Y61, Q at L31) (antibody, V domains shown) VH: QVQLVQSGGGVVQPGRSLRLSCAASGFTFSSYGMHWVRQAPGKGLEWVAFIRYDGSNKYYADSVKGRFTISRDNSKNTLYLQMKSLRAEDTAVYYCKTHGSHDNWGQGTMVTVSS VL: SYVLTQPPSVSGTPGQRVTISCSGGRSNIGSQTVKWYQQLPGTAPKLLIYGNDQRPSGVPDRFSGSKSGTSASLAITGVQAEDEADYYCQSYDRGTHPALLFGTGTKVTVLG |
| 9.7e-05 | SEQ ID NO: 490 (Y61, I at L31) (antibody, V domains shown) VH: QVQLVQSGGGVVQPGRSLRLSCAASGFTFSSYGMHWVRQAPGKGLEWVAFIRYDGSNKYYADSVKGRFTISRDNSKNTLYLQMKSLRAEDTAVYYCKTHGSHDNWGQGTMVTVSS VL: SYVLTQPPSVSGTPGQRVTISCSGGRSNIGSITVKWYQQLPGTAPKLLIYGNDQRPSGVPDRFSGSKSGTSASLAITGVQAEDEADYYCQSYDRGTHPALLFGTGTKVTVLG |
| 0.000318 | SEQ ID NO: 496 (Y61, K at L32) (antibody, V domains shown) VH: QVQLVQSGGGVVQPGRSLRLSCAASGFTFSSYGMHWVRQAPGKGLEWVAFIRYDGSNKYYADSVKGRFTISRDNSKNTLYLQMKSLRAEDTAVYYCKTHGSHDNWGQGTMVTVSS VL: SYVLTQPPSVSGTPGQRVTISCSGGRSNIGSNKVKWYQQLPGTAPKLLIYGNDQRPSGVPDRFSGSKSGTSASLAITGVQAEDEADYYCQSYDRGTHPALLFGTGTKVTVLG |
| 0.000174 | SEQ ID NO: 489 (Y61, M at L31) (antibody, V domains shown) VH: QVQLVQSGGGVVQPGRSLRLSCAASGFTFSSYGMHWVRQAPGKGLEWVAFIRYDGSNKYYADSVKGRFTISRDNSKNTLYLQMKSLRAEDTAVYYCKTHGSHDNWGQGTMVTVSS VL: SYVLTQPPSVSGTPGQRVTISCSGGRSNIGSMTVKWYQQLPGTAPKLLIYGNDQRPSGVPDRFSGSKSGTSASLAITGVQAEDEADYYCQSYDRGTHPALLFGTGTKVTVLG |
| 0.00197 | SEQ ID NO: 498 (Y61, N at L32) (antibody, V domains shown) VH: QVQLVQSGGGVVQPGRSLRLSCAASGFTFSSYGMHWVRQAPGKGLEWVAFIRYDGSNKYYADSVKGRFTISRDNSKNTLYLQMKSLRAEDTAVYYCKTHGSHDNWGQGTMVTVSS VL: SYVLTQPPSVSGTPGQRVTISCSGGRSNIGSNNVKWYQQLPGTAPKLLIYGNDQRPSGVPDRFSGSKSGTSASLAITGVQAEDEADYYCQSYDRGTHPALLFGTGTKVTVLG |
| 0.00191 | SEQ ID NO: 493 (Y61, S at L32) (antibody, V domains shown) VH: QVQLVQSGGGVVQPGRSLRLSCAASGFTFSSYGMHWVRQAPGKGLEWVAFIRYDGSNKYYADSVKGRFTISRDNSKNTLYLQMKSLRAEDTAVYYCKTHGSHDNWGQGTMVTVSS VL: SYVLTQPPSVSGTPGQRVTISCSGGRSNIGSNSVKWYQQLPGTAPKLLIYGNDQRPSGVPDRFSGSKSGTSASLAITGVQAEDEADYYCQSYDRGTHPALLFGTGTKVTVLG |
| 0.00381 | SEQ ID NO: 492 (Y61, C at L32) (antibody, V domains shown) VH: QVQLVQSGGGVVQPGRSLRLSCAASGFTFSSYGMHWVRQAPGKGLEWVAFIRYDGSNKYYADSVKGRFTISRDNSKNTLYLQMKSLRAEDTAVYYCKTHGSHDNWGQGTMVTVSS VL: SYVLTQPPSVSGTPGQRVTISCSGGRSNIGSNCVKWYQQLPGTAPKLLIYGNDQRPSGVPDRFSGSKSGTSASLAITGVQAEDEADYYCQSYDRGTHPALLFGTGTKVTVLG |
| 0.0069 | SEQ ID NO: 497 (Y61, R at L32) (antibody, V domains shown) VH: QVQLVQSGGGVVQPGRSLRLSCAASGFTFSSYGMHWVRQAPGKGLEWVAFIRYDGSNKYYADSVKGRFTISRDNSKNTLYLQMKSLRAEDTAVYYCKTHGSHDNWGQGTMVTVSS VL: SYVLTQPPSVSGTPGQRVTISCSGGRSNIGSNRVKWYQQLPGTAPKLLIYGNDQRPSGVPDRFSGSKSGTSASLAITGVQAEDEADYYCQSYDRGTHPALLFGTGTKVTVLG |
| 0.000309 | SEQ ID NO: 487 (Y61, T at L31) (antibody, V domains shown) VH: QVQLVQSGGGVVQPGRSLRLSCAASGFTFSSYGMHWVRQAPGKGLEWVAFIRYDGSNKYYADSVKGRFTISRDNSKNTLYLQMKSLRAEDTAVYYCKTHGSHDNWGQGTMVTVSS VL: SYVLTQPPSVSGTPGQRVTISCSGGRSNIGSTTVKWYQQLPGTAPKLLIYGNDQRPSGVPDRFSGSKSGTSASLAITGVQAEDEADYYCQSYDRGTHPALLFGTGTKVTVLG |
| 0.000252 | SEQ ID NO: 491 (Y61, D at L32) (antibody, V domains shown) VH: QVQLVQSGGGVVQPGRSLRLSCAASGFTFSSYGMHWVRQAPGKGLEWVAFIRYDGSNKYYADSVKGRFTISRDNSKNTLYLQMKSLRAEDTAVYYCKTHGSHDNWGQGTMVTVSS VL: SYVLTQPPSVSGTPGQRVTISCSGGRSNIGSNDVKWYQQLPGTAPKLLIYGNDQRPSGVPDRFSGSKSGTSASLAITGVQAEDEADYYCQSYDRGTHPALLFGTGTKVTVLG |
| 0.00058 | SEQ ID NO: 479 (Y61, D at L31) (antibody, V domains shown) VH: QVQLVQSGGGVVQPGRSLRLSCAASGFTFSSYGMHWVRQAPGKGLEWVAFIRYDGSNKYYADSVKGRFTISRDNSKNTLYLQMKSLRAEDTAVYYCKTHGSHDNWGQGTMVTVSS VL: SYVLTQPPSVSGTPGQRVTISCSGGRSNIGSDTVKWYQQLPGTAPKLLIYGNDQRPSGVPDRFSGSKSGTSASLAITGVQAEDEADYYCQSYDRGTHPALLFGTGTKVTVLG |
| 0.00026 | SEQ ID NO: 495 (Y61, H at L32) (antibody, V domains shown) VH: QVQLVQSGGGVVQPGRSLRLSCAASGFTFSSYGMHWVRQAPGKGLEWVAFIRYDGSNKYYADSVKGRFTISRDNSKNTLYLQMKSLRAEDTAVYYCKTHGSHDNWGQGTMVTVSS VL: SYVLTQPPSVSGTPGQRVTISCSGGRSNIGSNHVKWYQQLPGTAPKLLIYGNDQRPSGVPDRFSGSKSGTSASLAITGVQAEDEADYYCQSYDRGTHPALLFGTGTKVTVLG |
| 0.000331 | SEQ ID NO: 484 (Y61, K at L31) (antibody, V domains shown) VH: QVQLVQSGGGVVQPGRSLRLSCAASGFTFSSYGMHWVRQAPGKGLEWVAFIRYDGSNKYYADSVKGRFTISRDNSKNTLYLQMKSLRAEDTAVYYCKTHGSHDNWGQGTMVTVSS VL: SYVLTQPPSVSGTPGQRVTISCSGGRSNIGSKTVKWYQQLPGTAPKLLIYGNDQRPSGVPDRFSGSKSGTSASLAITGVQAEDEADYYCQSYDRGTHPALLFGTGTKVTVLG |
| 0.000315 | SEQ ID NO: 483 (Y61, H at L31) (antibody, V domains shown) VH: QVQLVQSGGGVVQPGRSLRLSCAASGFTFSSYGMHWVRQAPGKGLEWVAFIRYDGSNKYYADSVKGRFTISRDNSKNTLYLQMKSLRAEDTAVYYCKTHGSHDNWGQGTMVTVSS VL: SYVLTQPPSVSGTPGQRVTISCSGGRSNIGSHTVKWYQQLPGTAPKLLIYGNDQRPSGVPDRFSGSKSGTSASLAITGVQAEDEADYYCQSYDRGTHPALLFGTGTKVTVLG |
| 0.000384 | SEQ ID NO: 480 (Y61, E at L31) (antibody, V domains shown) VH: QVQLVQSGGGVVQPGRSLRLSCAASGFTFSSYGMHWVRQAPGKGLEWVAFIRYDGSNKYYADSVKGRFTISRDNSKNTLYLQMKSLRAEDTAVYYCKTHGSHDNWGQGTMVTVSS VL: SYVLTQPPSVSGTPGQRVTISCSGGRSNIGSETVKWYQQLPGTAPKLLIYGNDQRPSGVPDRFSGSKSGTSASLAITGVQAEDEADYYCQSYDRGTHPALLFGTGTKVTVLG |
| 0.000357 | SEQ ID NO: 482 (Y61, Y at L31) (antibody, V domains shown) VH: QVQLVQSGGGVVQPGRSLRLSCAASGFTFSSYGMHWVRQAPGKGLEWVAFIRYDGSNKYYADSVKGRFTISRDNSKNTLYLQMKSLRAEDTAVYYCKTHGSHDNWGQGTMVTVSS VL: SYVLTQPPSVSGTPGQRVTISCSGGRSNIGSYTVKWYQQLPGTAPKLLIYGNDQRPSGVPDRFSGSKSGTSASLAITGVQAEDEADYYCQSYDRGTHPALLFGTGTKVTVLG |
| 0.000392 | SEQ ID NO: 481 (Y61, S at L31) (antibody, V domains shown) VH: QVQLVQSGGGVVQPGRSLRLSCAASGFTFSSYGMHWVRQAPGKGLEWVAFIRYDGSNKYYADSVKGRFTISRDNSKNTLYLQMKSLRAEDTAVYYCKTHGSHDNWGQGTMVTVSS VL: SYVLTQPPSVSGTPGQRVTISCSGGRSNIGSSTVKWYQQLPGTAPKLLIYGNDQRPSGVPDRFSGSKSGTSASLAITGVQAEDEADYYCQSYDRGTHPALLFGTGTKVTVLG |
| 0.000213 | SEQ ID NO: 494 (Y61, Y at L32) (antibody, V domains shown) VH: QVQLVQSGGGVVQPGRSLRLSCAASGFTFSSYGMHWVRQAPGKGLEWVAFIRYDGSNKYYADSVKGRFTISRDNSKNTLYLQMKSLRAEDTAVYYCKTHGSHDNWGQGTMVTVSS VL: SYVLTQPPSVSGTPGQRVTISCSGGRSNIGSNYVKWYQQLPGTAPKLLIYGNDQRPSGVPDRFSGSKSGTSASLAITGVQAEDEADYYCQSYDRGTHPALLFGTGTKVTVLG |
